B1: EEHEE_rd3_0130 (parent)
chain: TKIIVNGKTFTAPTEEEAQKIAEKLAKKAGLTVHKKNGTFELK

Variants of: B1
Assay: folding stability dG (cDNA display proteolysis); higher = more stable
Settings: PBS, room temperature

Folding stability dG [kcal/mol] of substitutions, site by site:
K8: H 0.948; T 0.475; S 0.223; D -0.391; R 0.999; A 0.511
E16: S 0.797; W 0.933; R 0.892; P 0.061; V 0.573; F 0.765; H 0.749; C 0.888; I 0.723; N 0.47; A 0.911; K 0.756; Y 0.864; G 0.554; T 0.649; D 0.611; M 0.821; Q 0.827; L 0.722
K24: T 0.939; V 0.829; L 1.11; H 0.996; Y 1.64; Q 0.873; D 0.676; F 1.47; S 0.873; N 0.76; M 1.14; G 0.617; R 1.08; I 0.99; E 0.799; A 1.06; W 1.78
G7: W 0.187; T -0.032; V -0.592; Y 0.159
L25: H -0.294; R -0.578; F 0.651; D -0.802; V 0.245; Y 0.649; C 1.13; I 1.13; E -0.265; G -0.493; A -0.68; M 0.784; Q -0.482; W 1.48; T -0.134
T14: E -0.71; P -0.49; W 0.054; M -0.226; I -0.354; G 0.32; D 0.286; L -0.412; H -0.337; N 0.897; S 0.86; C 0.682; F -0.544; R -0.419; Y -0.419; K -0.4; A -0.233; Q -0.297; V -0.396
K20: S 0.688; T 0.562; D 0.538; G 0.122; M 0.854; A 0.82; Q 0.722; P -0.378; E 0.663; W 0.804; I 0.836; V 0.724; L 0.783; Y 0.745; N 0.548; H 0.597; R 1.01; F 0.767
A22: F 0.168; E -0.91; Y -0.256; S 0.153; G -0.83; L 0.301; V 0.71; I 0.601; T -0.186; M 0.143; W 0.017; Q -0.657; H -0.772; C 0.374; R -0.631
E23: V 0.598; Y 1.13; T 0.669; H 0.803; Q 0.752; N 0.832; G 0.246; A 0.74; C 1.52; S 0.686; K 0.602; L 0.894; R 0.794; I 0.873; F 0.837; D 0.78; M 1.04; W 0.894
P13: L 0.492; E 0.598; Y 0.302; F 0.391; G 0.731; C 0.981; A 0.804; S 0.761; N 0.67; V 0.451; K 0.854; Q 0.651; R 0.954; H 0.651; M 0.526; D 0.664; W 0.532; I 0.41; T 0.634
A18: T -0.68; L -0.286; S -0.692; M -0.37; G 0.375; Q -0.715; R -0.569; N -0.938; V -0.585; E -0.74; W -0.4; F -0.368; D -0.679; Y -0.863; I -0.353; K -0.952; C 0.561
